Target: M6P receptor on the surface of human MPS IIIB skin fibroblasts (human)
Test: cell-based or functional assay

NaGlu enzymatic activity in human MPS IIIB fibroblasts after 24 h with 0.3 ug/mL rhNaGlu (cellular uptake): ~50 % of wild-type fibroblast activity
NaGlu enzymatic activity in human MPS IIIB fibroblasts after 24 h with 1 ug/mL rhNaGlu (cellular uptake): ~4 fold of wild-type fibroblast activity
NaGlu enzymatic activity in human MPS IIIB fibroblasts after 24 h with 30 ug/mL rhNaGlu (cellular uptake): ≥ 40 fold of wild-type fibroblast activity
B1: recombinant human N-acetyl-alpha-D-glucosaminidase (rhNaGlu) produced in transgenic avian (Gallus) egg white (enzyme)
chain: DEAREAAAVRALVARLLGPGPAADFSVSVERALAAKPGLDTYSLGGGGAARVRVRGSTGVAAAAGLHRYLRDFCGCHVAWSGSQLRLPRPLPAVPGELTEATPNRYRYYQNVCTQSYSFVWWDWARWEREIDWMALNGINLALAWSGQEAIWQRVYLALGLTQAEINEFFTGPAFLAWGRMGNLHTWDGPLPPSWHIKQLYLQHRVLDQMRSFGMTPVLPAFAGHVPEAVTRVFPQVNVTKMGSWGHFNCSYSCSFLLAPEDPIFPIIGSLFLRELIKEFGTDHIYGADTFNEMQPPSSEPSYLAAATTAVYEAMTAVDTEAVWLLQGWLFQHQPQFWGPAQIRAVLGAVPRGRLLVLDLFAESQPVYTRTASFQGQPFIWCMLHNFGGNHGLFGALEAVNGGPEAARLFPNSTMVGTGMAPEGISQNEVVYSLMAELGWRKDPVPDLAAWVTSFAARRYGVSHPDAGAAWRLLLRSVYNCSGEACRGHNRSPLVRRPSLQMNTSIWYNRSDVFEAWRLLLTSAPSLATSPAFRYDLLDLTRQAVQELVSLYYEEARSAYLSKELASLLRAGGVLAYELLPALDEVLASDSRFLLGSWLEQARAAAVSEAEADFYEQNSRYQLTLWGPEGNILDYANKQLAGLVANYYTPRWRLFLEALVDSVAQGIPFQQHQFDKNVFQLEQAFVLSKQRYPSQPRGDTVDLAKKIFLKYYPRWVAGSW
modifications: N-linked glycans carrying mannose-6-phosphate (3.2 moles of M6P per mole of protein), mannose and GlcNAc; sites not stated
